Data: patent publication US20240000930A1

Tests used:
[1] = target: carboxymethyl lysine conjugated to keyhole limpet hemocyanin (CML-KLH); test: direct binding ELISA, CML-KLH coat 1 ug/mL, antibody at 1.85 ug/mL
[2] = target: carboxymethyl lysine conjugated to keyhole limpet hemocyanin (CML-KLH); test: direct binding ELISA, CML-KLH coat 1 ug/mL, antibody at 0.07 ug/mL
[3] = target: carboxymethyl lysine conjugated to keyhole limpet hemocyanin (CML-KLH); test: direct binding ELISA, CML-KLH coat 1 ug/mL, antibody at 16.67 ug/mL
[4] = target: carboxymethyl lysine conjugated to keyhole limpet hemocyanin (CML-KLH); test: direct binding ELISA, CML-KLH coat 1 ug/mL, antibody at 0.62 ug/mL
[5] = target: carboxymethyl lysine conjugated to keyhole limpet hemocyanin (CML-KLH); test: direct binding ELISA, CML-KLH coat 1 ug/mL, antibody at 50 ug/mL
[6] = target: carboxymethyl lysine conjugated to keyhole limpet hemocyanin (CML-KLH); test: direct binding ELISA, CML-KLH coat 1 ug/mL, antibody at 0.21 ug/mL
[7] = target: carboxymethyl lysine conjugated to keyhole limpet hemocyanin (CML-KLH); test: direct binding ELISA, CML-KLH coat 1 ug/mL, antibody at 5.56 ug/mL

Substance: anti-carboxymethyl lysine (CML) antibody (R&D Systems, MAB3247)
- OD450 absorbance [1]: 0.092 OD450
- OD450 absorbance [2]: 0.086 OD450
- OD450 absorbance [3]: 0.312 OD450
- OD450 absorbance [4]: 0.083 OD450
- OD450 absorbance [5]: 0.462 OD450
- OD450 absorbance [6]: 0.075 OD450
- OD450 absorbance [7]: 0.165 OD450
